These results are taken from patent publication US20240209109A1.

Substitutions are numbered along the chain they refer to.

The labels stand for the following.
B1: 2p931 anti-Claudin 18.2/CD40 bispecific antibody (bispecific antibody, part only; not given: Claudin 18.2 Fab arms, constant regions, linker, V domains shown, not shown: another chain or arm of the molecule; a dimerising Fc or GST; small tags and cut ends)
VHH: AVQLVESGGGLVQPGGSLRLSCAASGFSFRNYMMNWVRQAPGKGLECLSSITSAGDITSYTESVKGRFTISRDNAKNTLYLQMNSLKPEDTAVYYCAQGGCGNYYRESWGQGTQVTVSS
B2: 2p957 anti-Claudin 18.2/CD40 bispecific antibody (bispecific antibody, part only; not given: Claudin 18.2 Fab arms, constant regions, linker, V domains shown, not shown: another chain or arm of the molecule; a dimerising Fc or GST; small tags and cut ends)
VHH: B1 VHH with A1P, M33I, N35S, C47W, S53N, A54S, D56G, C101S, G102D, E107G
B3: 42p155 anti-Claudin 18.2/CD40 bispecific antibody (bispecific antibody, part only; not given: Claudin 18.2 Fab arms, constant regions, linker, V domains shown, not shown: another chain or arm of the molecule; a dimerising Fc or GST; small tags and cut ends)
VHH: PSQLVESGGGLVQPGGSLRLSCAASGFAFRSYTMSWVRQAPGKGLEWVSTITHNGAITTYAESAQGRFTISRDNAKNTLYLQMNSLKPEDTAVYYCAQGGGSNYYRESWGQGTQVTVSS
B4: 3p78 anti-Claudin 18.2/CD40 bispecific antibody (bispecific antibody, part only; not given: Claudin 18.2 Fab arms, constant regions, linker, V domains shown, not shown: another chain or arm of the molecule; a dimerising Fc or GST; small tags and cut ends)
VHH: B3 VHH with S2V, A28T, S31N, T33A
B5: 42p655 anti-Claudin 18.2/CD40 bispecific antibody (bispecific antibody, part only; not given: Claudin 18.2 Fab arms, constant regions, linker, V domains shown, not shown: another chain or arm of the molecule; a dimerising Fc or GST; small tags and cut ends)
VHH: B3 VHH with P1A, S2V, S31R, T50S, H53D, A56S, Y95H
B6: 2p1294 anti-Claudin 18.2/CD40 bispecific antibody (bispecific antibody, part only; not given: Claudin 18.2 Fab arms, constant regions, linker, V domains shown, not shown: another chain or arm of the molecule; a dimerising Fc or GST; small tags and cut ends)
VHH: B3 VHH with P1Q, S2V, A28S, S31R, T50A, T52S, H53D, A61T
B7: 2p834 anti-Claudin 18.2/CD40 bispecific antibody (bispecific antibody, part only; not given: Claudin 18.2 Fab arms, constant regions, linker, V domains shown, not shown: another chain or arm of the molecule; a dimerising Fc or GST; small tags and cut ends)
VHH: B3 VHH with P1Q, S31R, A56S
B8: 2p1130 anti-Claudin 18.2/CD40 bispecific antibody (bispecific antibody, part only; not given: Claudin 18.2 Fab arms, constant regions, linker, V domains shown, not shown: another chain or arm of the molecule; a dimerising Fc or GST; small tags and cut ends)
VHH: EVQVVESGGGLVQPGGSLRLTCAASGFSVDDYGIGWFRQAPGREREGVACITPNGLMMNFANTVGSVAGRFSASRDSGENTVSLQMSSLKPEDTAIYFCAHSRDDSCRGSLSDYDDWGQGTQVTVSS
B9: 42p495 anti-Claudin 18.2/CD40 bispecific antibody (bispecific antibody, part only; not given: Claudin 18.2 Fab arms, constant regions, linker, V domains shown, not shown: another chain or arm of the molecule; a dimerising Fc or GST; small tags and cut ends)
VHH: PVQLVESGGNLVQPGGSLRLSCVAPGFTSRNSAMSWVRQAPGKGLEWVSTIYSGKSNTDYADSVKGRFTISTDNAKNTLYLHMNKLKSEDTAVYYCAKGAASDWYVPRDYWGQGTQVTVSS
B10: 2p415 anti-Claudin 18.2/CD40 bispecific antibody (bispecific antibody, part only; not given: Claudin 18.2 Fab arms, constant regions, linker, V domains shown, not shown: another chain or arm of the molecule; a dimerising Fc or GST; small tags and cut ends)
VHH: QLHFVESGGGLVQPGGSLRLSCAASGFTLDHYAMGWFRQAPGKEREGVSCISGGGSTRYADSAKGRFTISRDNAKNTVYLQMNSLTPEDTAVYYCAAARLLSRNCVPRDSGSWGQGTQVTVSS
B11: 2p442 anti-Claudin 18.2/CD40 bispecific antibody (bispecific antibody, part only; not given: Claudin 18.2 Fab arms, constant regions, linker, V domains shown, not shown: another chain or arm of the molecule; a dimerising Fc or GST; small tags and cut ends)
VHH: B10 VHH with L2V, H3Q, F4L, A23V, H31Y, Y32F, M34I, A63V
B12: 2p551 anti-Claudin 18.2/CD40 bispecific antibody (bispecific antibody, part only; not given: Claudin 18.2 Fab arms, constant regions, linker, V domains shown, not shown: another chain or arm of the molecule; a dimerising Fc or GST; small tags and cut ends)
VHH: B10 VHH with H31Y, M34I, A63V, R103T

A word on the Kd: it is a measure of binding affinity in units of concentration. High values mean weaker binding, low ones tighter binding. The term koff denotes the rate constant with which the complex falls apart. As usually defined, the kon is a measure of how fast the partners come together.

human CD40-His protein (human), sequence (P25942 21-193 limits assumed): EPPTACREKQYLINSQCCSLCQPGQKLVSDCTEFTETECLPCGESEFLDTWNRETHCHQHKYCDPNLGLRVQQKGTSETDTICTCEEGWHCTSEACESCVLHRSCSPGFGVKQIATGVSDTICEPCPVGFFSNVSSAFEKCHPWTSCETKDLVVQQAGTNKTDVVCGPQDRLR

This assay concerns the target human CD40-His protein (human) (UniProt P25942). Kind of assay: SPR Biacore T200, antibody captured on Protein A, CD40-His injected. On the technique in general: SPR reads the build-up and loss of mass on a sensor chip optically.
The molecule B1 returned a dissociation constant Kd of 86.2 nM, a dissociation rate constant (koff) of 0.00409 s⁻¹ and an association rate constant (kon) of 47400 M⁻¹ s⁻¹.

For B2, the Kd came out at 2310 nM, the koff turned out to be 0.107 s⁻¹ and the kon came out at 46400 M⁻¹ s⁻¹.

In turn, B3 showed an equilibrium dissociation constant (Kd) of 760 nM, an off-rate constant (koff) of 0.0374 s⁻¹ and a kon of 49100 M⁻¹ s⁻¹.

As to B4, the equilibrium dissociation constant (Kd) stood at 2490 nM, the koff is 0.107 s⁻¹ and the kon was 42700 M⁻¹ s⁻¹.

The molecule B5 had a dissociation constant (Kd) of 47.5 nM, a koff of 0.00442 s⁻¹ and a kon of 93100 M⁻¹ s⁻¹.

B6 came in with a dissociation constant Kd of 182 nM, a koff of 0.0187 s⁻¹ and a kon of 103000 M⁻¹ s⁻¹.

In turn, B7 yielded a dissociation constant Kd of 90.6 nM, a koff of 0.0084 s⁻¹ and a kon of 92700 M⁻¹ s⁻¹.

Regarding B8, the Kd came to 2770 nM, the off-rate constant (koff) stood at 0.0705 s⁻¹ and the kon stood at 25400 M⁻¹ s⁻¹.

Consider B9, for which the dissociation constant (Kd) is 935 nM, the off-rate constant (koff) was found to be 0.0118 s⁻¹ and the on-rate constant (kon) was 12700 M⁻¹ s⁻¹.

In turn, B10 came in with a dissociation constant Kd of 754 nM, an off-rate (koff) of 0.0447 s⁻¹ and an on-rate (kon) of 59300 M⁻¹ s⁻¹.

In the case of B11, the dissociation constant Kd was found to be 1030 nM, the off-rate (koff) was determined as 0.045 s⁻¹ and the kon is 43700 M⁻¹ s⁻¹.

On to B12, for which the equilibrium dissociation constant (Kd) turned out to be 492 nM, the koff was determined as 0.0177 s⁻¹ and the on-rate constant (kon) was found to be 36100 M⁻¹ s⁻¹.
